PMC7995010

Target: ACE2‐Fc produced in glycoengineered ΔXT/FT Nicotiana benthamiana (human) (UniProt Q9BYF1)
Assay: SEC-MALS; isolated dimer fraction of ACE2‐Fc; native molecular mass by MALS

“ACE2‐Fc produced in glycoengineered ΔXT/FT Nicotiana benthamiana (from UniProt Q9BYF1 18-615) (Fc fusion)” gave a stoichiometry N of 2.
